This passage reports Kd results from article PMC9352680, “A comprehensive thermodynamic model for RNA binding by the Saccharomyces cerevisiae Pumilio protein PUF4”.

The chains are these.
B1: Ib_S3_P4E.1_K4.1_C4.1_H4.1_[G2C]_[T3C]_A4.1_F4.1_T4.1 (ssRNA)
RNA: ACAAACUCCAUAUUAACAAAC
B2: Ib_S3_P5E.1_K5.1_C5.1_H5.1_[T1G]_[A4C]_A5.1_F5.1_T5.1 (ssRNA)
RNA: ACAAACGGUCUUAUUAACAAAC
B3: Ia_S1_P3E.1_K3.1_C3.1_H3.1_[G2A]_A3.1_F3.1_T3.1 (ssRNA)
RNA: UCUCUUUAUAUAUAUCUCUU
B4: Ib_S3_P5E.1_K5.1_C5.1_H5.1_[T1C]_A5.1_[T6A]_F5.1_T5.1 (ssRNA)
RNA: ACAAACCGUAUAAUUAACAAAC
B5: Ib_S3_P4E.1_K4.1_C4.1_H4.1_[T1A]_A4.1_[T5A]_F4.1_T4.1 (ssRNA)
RNA: ACAAACAGUAAAUUAACAAAC
B6: Ib_S3_P5E.1_K5.1_C5.1_H5.1_[T3G]_A5.1_F5.1_[T8C]_T5.1 (ssRNA)
RNA: ACAAACUGGAUUACUAACAAAC
B7: Ib_S3_P5E.1_K5.1_C5.1_H5.1_[G2T]_A5.1_F5.1_[A10T]_T5.1 (ssRNA)
RNA: ACAAACUUUAUUAUUUACAAAC
B8: Ib_S3_P5E.1_K5.1_C5.1_H5.1_[T3A]_[A4C]_A5.1_F5.1_T5.1 (ssRNA)
RNA: ACAAACUGACUUAUUAACAAAC
B9: Ib_S3_P5E.1_K5.1_C5.1_H5.1_[G2A]_A5.1_F5.1_[A10T]_T5.1 (ssRNA)
RNA: ACAAACUAUAUUAUUUACAAAC
B10: Ib_S3_P5E.1_K5.1_C5.1_H5.1_[T3G]_A5.1_F5.1_[T9G]_T5.1 (ssRNA)
RNA: ACAAACUGGAUUAUGAACAAAC
B11: Ib_S3_P4E.1_K4.1_C4.1_H4.1_[T3A]_A4.1_[T7C]_F4.1_T4.1 (ssRNA)
RNA: ACAAACUGAAUACUAACAAAC
B12: Ib_S3_P5E.1_K5.1_C5.1_H5.1_[T1C]_[G2C]_A5.1_F5.1_T5.1 (ssRNA)
RNA: ACAAACCCUAUUAUUAACAAAC
B13: Ib_S3_P4E.1_K4.1_C4.1_H4.1_[T3C]_A4.1_[T7A]_F4.1_T4.1 (ssRNA)
RNA: ACAAACUGCAUAAUAACAAAC
B14: Ib_S3_P4E.1_K4.1_C4.1_H4.1_[T3C]_A4.1_[A6T]_F4.1_T4.1 (ssRNA)
RNA: ACAAACUGCAUUUUAACAAAC
B15: Ib_S3_P4E.1_K4.1_C4.1_H4.1_[G2A]_[A4T]_A4.1_F4.1_T4.1 (ssRNA)
RNA: ACAAACUAUUUAUUAACAAAC
B16: Ib_S3_P5E.1_K5.1_C5.1_H5.1_[G2C]_[T3C]_A5.1_F5.1_T5.1 (ssRNA)
RNA: ACAAACUCCAUUAUUAACAAAC
B17: Ib_S3_P4E.1_K4.1_C4.1_H4.1_[T1A]_[G2T]_A4.1_F4.1_T4.1 (ssRNA)
RNA: ACAAACAUUAUAUUAACAAAC
B18: Ib_S3_P5E.1_K5.1_C5.1_H5.1_[T1G]_A5.1_[A7T]_F5.1_T5.1 (ssRNA)
RNA: ACAAACGGUAUUUUUAACAAAC
B19: Ib_S3_P4E.1_K4.1_C4.1_H4.1_[T1A]_A4.1_[A6C]_F4.1_T4.1 (ssRNA)
RNA: ACAAACAGUAUCUUAACAAAC
B20: Ib_S3_P5E.1_K5.1_C5.1_H5.1_[T1C]_[G2T]_A5.1_F5.1_T5.1 (ssRNA)
RNA: ACAAACCUUAUUAUUAACAAAC
B21: Ib_S3_P5E.1_K5.1_C5.1_H5.1_[T1A]_[A4C]_A5.1_F5.1_T5.1 (ssRNA)
RNA: ACAAACAGUCUUAUUAACAAAC
B22: Ib_S3_P5E.1_K5.1_C5.1_H5.1_[T1G]_A5.1_[T6C]_F5.1_T5.1 (ssRNA)
RNA: ACAAACGGUAUCAUUAACAAAC
B23: Ib_S3_P4E.1_K4.1_C4.1_H4.1_[T3A]_A4.1_[T7A]_F4.1_T4.1 (ssRNA)
RNA: ACAAACUGAAUAAUAACAAAC
B24: Ib_S3_P5E.1_K5.1_C5.1_H5.1_[T3C]_A5.1_F5.1_[T8C]_T5.1 (ssRNA)
RNA: ACAAACUGCAUUACUAACAAAC
B25: Ib_S3_P5E.1_K5.1_C5.1_H5.1_[T1A]_A5.1_[T6C]_F5.1_T5.1 (ssRNA)
RNA: ACAAACAGUAUCAUUAACAAAC
B26: Ib_S3_P4E.1_K4.1_C4.1_H4.1_[T1C]_A4.1_[T5G]_F4.1_T4.1 (ssRNA)
RNA: ACAAACCGUAGAUUAACAAAC
B27: Ib_S3_P5E.1_K5.1_C5.1_H5.1_[A4C]_A5.1_F5.1_[A10T]_T5.1 (ssRNA)
RNA: ACAAACUGUCUUAUUUACAAAC
B28: Ib_S3_P5E.1_K5.1_C5.1_H5.1_[T3G]_A5.1_F5.1_[T8A]_T5.1 (ssRNA)
RNA: ACAAACUGGAUUAAUAACAAAC
B29: Ib_S3_P4E.1_K4.1_C4.1_H4.1_[T1C]_A4.1_[A6T]_F4.1_T4.1 (ssRNA)
RNA: ACAAACCGUAUUUUAACAAAC
B30: Ib_S3_P4E.1_K4.1_C4.1_H4.1_[T1A]_A4.1_[T5G]_F4.1_T4.1 (ssRNA)
RNA: ACAAACAGUAGAUUAACAAAC
B31: Ib_S3_P5E.1_K5.1_C5.1_H5.1_[T1A]_[T3G]_A5.1_F5.1_T5.1 (ssRNA)
RNA: ACAAACAGGAUUAUUAACAAAC
B32: Ia_S1_P3E.1_K3.1_C3.1_H3.1_A3.1_F3.1_[T7C]_T3.1 (ssRNA)
RNA: UCUCUUUGUAUACAUCUCUU
B33: Ib_S3_P5E.1_K5.1_C5.1_H5.1_[T1A]_A5.1_[T6A]_F5.1_T5.1 (ssRNA)
RNA: ACAAACAGUAUAAUUAACAAAC
B34: Ib_S3_P4E.1_K4.1_C4.1_H4.1_[G2C]_A4.1_[T7G]_F4.1_T4.1 (ssRNA)
RNA: ACAAACUCUAUAGUAACAAAC
B35: Ib_S3_P5E.1_K5.1_C5.1_H5.1_[G2A]_[T3A]_A5.1_F5.1_T5.1 (ssRNA)
RNA: ACAAACUAAAUUAUUAACAAAC
B36: Ib_S3_P5E.1_K5.1_C5.1_H5.1_[G2A]_[A4T]_A5.1_F5.1_T5.1 (ssRNA)
RNA: ACAAACUAUUUUAUUAACAAAC
B37: Ib_S3_P5E.1_K5.1_C5.1_H5.1_[T1C]_A5.1_F5.1_[A10C]_T5.1 (ssRNA)
RNA: ACAAACCGUAUUAUUCACAAAC
B38: Ib_S3_P5E.1_K5.1_C5.1_H5.1_[T3A]_A5.1_F5.1_[T9A]_T5.1 (ssRNA)
RNA: ACAAACUGAAUUAUAAACAAAC
B39: Ib_S3_P5E.1_K5.1_C5.1_H5.1_[A4C]_A5.1_F5.1_[T8C]_T5.1 (ssRNA)
RNA: ACAAACUGUCUUACUAACAAAC
B40: Ia_S2_P5E.1_K5.1_C5.1_H5.1_A5.1_[T5A]_F5.1_T5.1 (ssRNA)
RNA: UUUGAUUAAUAUGAUAUCGUUCUUUCUUGUAAUAUUAUUCUUUCUCGAUAUCAUAUUAAUCUUU
B41: Ia_S2_P5E.1_K5.1_C5.1_H5.1_A5.1_[T6C]_F5.1_T5.1 (ssRNA)
RNA: B40 RNA with A32U, U33C
B42: Ia_S2_P5E.1_K5.1_C5.1_H5.1_A5.1_[T6A]_F5.1_T5.1 (ssRNA)
RNA: B40 RNA with A32U, U33A
B43: Ia_S2_P5E.1_K5.1_C5.1_H5.1_A5.1_[A7G]_F5.1_T5.1 (ssRNA)
RNA: B40 RNA with A32U, A34G
B44: Ib_S3_P5E.1_K5.1_C5.1_H5.1_[G2A]_A5.1_F5.1_[T8A]_T5.1 (ssRNA)
RNA: ACAAACUAUAUUAAUAACAAAC

Numbering of substitutions follows the chain as printed. In names and notes the source's numbering stands.

This series addresses T1, PUF4 RNA-binding domain (Saccharomyces cerevisiae, UniProt P25339 537-888).
T1 sequence: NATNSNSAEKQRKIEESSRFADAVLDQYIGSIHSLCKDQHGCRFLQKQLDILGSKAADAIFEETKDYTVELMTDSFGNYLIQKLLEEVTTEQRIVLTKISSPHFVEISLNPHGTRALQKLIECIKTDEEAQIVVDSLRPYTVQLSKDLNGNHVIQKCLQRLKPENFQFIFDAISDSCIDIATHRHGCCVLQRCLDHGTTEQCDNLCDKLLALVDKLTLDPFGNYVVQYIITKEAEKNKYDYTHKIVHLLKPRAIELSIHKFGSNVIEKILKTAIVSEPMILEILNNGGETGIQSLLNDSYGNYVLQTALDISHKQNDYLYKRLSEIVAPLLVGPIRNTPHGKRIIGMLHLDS
In words: Mg; RNA-MaP; 20 mM Na-HEPES pH 7.4, 30 mM KOAc, 0.75 mM MgCl2, 0.1% Tween-20, 5% glycerol, 0.1 mg/mL BSA, 2 mM DTT; 25 C; 0.0125-409.6 nM protein. As to conditions: tags: N-His6-TEV cleaved; C-SNAP kept, Cy3B-labelled; label: tethered on chip by stalled RNA polymerase.
In turn, B1 registered a Kd above 2300 nM.

Molecule B2 gave a Kd above 2300 nM. For the molecule B3, the Kd came out at 637 nM. In the case of B4 it was 1180 nM; in that of B5, 596 nM. B6 had a Kd above 2300 nM. The result for B7 reads above 2300 nM. B8 had a Kd above 2300 nM. In the case of B9 it was 994 nM; in that of B10, above 2300 nM; in that of B11, 1130 nM.

The molecule B12 had a Kd above 2300 nM.

Consider B13, for which the Kd came to 1450 nM. The result for B14 reads 1910 nM; that for B15, above 2300 nM. The result for B16 reads above 2300 nM; that for B17, above 2300 nM; that for B18, 1600 nM. For B19, the equilibrium dissociation constant (Kd) is above 2300 nM. The result for B20 reads above 2300 nM; that for B21, above 2300 nM. In the case of B22, the dissociation constant Kd worked out at 1450 nM.

B23 yielded a Kd above 2300 nM. For the molecule B24, the Kd was above 2300 nM. In the case of B25 it was above 2300 nM. In the case of B26 it was 455 nM. The molecule B27 gave a Kd of 641 nM. For the molecule B28, the Kd is above 2300 nM. In the case of B29 it was 1400 nM; in that of B30, 828 nM; in that of B31, above 2300 nM. Consider B32, for which binding was characterised by a dissociation constant (Kd) of 44.6 nM. As to B33, the Kd was 1740 nM. In the case of B34 it was above 2300 nM.

Turning to B35, the Kd was above 2300 nM. Molecule B36 returned a Kd above 2300 nM. In the case of B37 it was above 2300 nM; in that of B38, above 2300 nM; in that of B39, 1030 nM. The result for B40 reads 4.27 nM. Regarding B41, the Kd stood at 1.73 nM. The result for B42 reads 2.33 nM; that for B43, 11.6 nM. B44 returned a Kd of 1580 nM.
